Results reported in the DeepSol protein solubility set.

Test: soluble on expression in E. coli; label from the status in PepcDB or PDB records

Sequence | soluble on expression in E. coli
MGSSHHHHHHSSGLVSRRHMNIDMAALHAIEVDRGISVNELLETIKSALLTAYRHTQGHQTDARIEIDRKTGVVRVIARETDEAGNLISEWDDTPEGFGRIAATTARQVMLQRFRDAENERTYGEFSTREGEIVAGVIQRDSRANARGLVVVRIGTETKASEGVIPAAEQVPGESYEHGNRLRCYVVGVTRGAREPLITLSRTHPNLVRKLFSLEVPEIADGSVEIVAVAREAGHRSKIAVRSNVAGLNAKGACIGPMGQRVRNVMSELSGEKIDIIDYDDDPARFVANALSPAKVVSVSVIDQTARAARVVVPDFQLSLAIGKEGQNARLAARLTGWRIDIRGDAPPPPPGQPEPGVSRGMAHDR | soluble
MSLKKIIITGALGQIGTELVIKCRERYGTENVLATDIRKPEPHSPVKNGPFEILDVTDRNRLFETVRYFNADTLMHMAALLSATAEKKPLVAWDLNMGGLINTLEAARRYQLKYFTPSSIGAFGISTPKVNTPQLTIQQPTTMYGINKVTGELLCQYYYVKFGVDTRSVRFPGLISHVKEPGGGITDYAVDMYFKAVRKGHYTSYINRYTYMDMMYMEDAIDAIIKLMEEDSVKLKTRNGYNLSAMSIEPEMLKQAIQVYYPDFTLDYDIDLERQDIALSWPDSIDTSCAQEEWGFDPKYDLPTMTKVMLEAIEKKQKEEGHHHHHH | soluble
MVTVVDRVTDRRLRHPEKAHRPDTSVQKKPDWIRVKAPTSQVYKETHGIVRAHKLVTVCEEAGCPNIGECWSQRHASFMILGEICTRACAFCNVATGIPFAVDENEPERVADAVARMELKHVVITSVDRDDLADGGAEHFAKVIYAIRRKAPKTTIEVLTPDFRHKDGALEIVVAAKPDVFNHNLETVPSKYLKVRPGARYFHSIRLLQRVKELDPTIFTKSGIMVGLGEERNEILQLMDDLRSADVDFMTIGQYLQPTRKHHPVIRFVPPEEFESFAKIGKVKGFLHMASNPLTRSSHHAGDDFAILQKARDEKFALQR | not soluble
MIRLPLLPTVIKNLFKKPATNPFPKTEPVPVPEDFRGKLVYNVDKCVGCRMCVTVCPAGVFVYLPEIRKVTLWIGRCVMCKQCVDVCPTAALQMSDEFLLASYDKYDAKLIYLTPEEAEDIKKKLEEANKAKAEKQASK | not soluble
MGSDKIHHHHHHMGRYLERTEHISRFSQAHYFFSIDAPKSVKKEHILESVLNMAGSYVEYLGSGNKMETMEVAYYIGLNEFNASSIKHSIVKARENARGAKDSISSELWQSINTFYHSINLMDRATFNEMGIYEFSKNVLQNSSVIKGNIDNTLLHEEAWSIIHLGQHIERTTQVIRMIVTKINDINRIPKKEYYNMIELFENVNLLKSTEAYDMSKIFYREVPSVSHSLEFLTLNRNFPKSIVYNLRHIEHCLLRITNLSKHETNSLEFYASKLLCTVKYTSIQDIEKEPLAFYNDLLNKVAKLADMLETKYLQY | not soluble
MSELSDEEISLQALYDPSKKVIGDIEDGIFSTPELQPRIKTGIDNLQLVTKLVNQMRLFSSNEQIEDVPTNSLPYLLVPCFLGILHQNLMTEPGLKLDELRKSKIYMRNFLDRLRDLCLITTRLPWEDEDTEEQNLKEKPKLAVEEIRRLKLERHKKKQELKMAELRIQKQLEAVSIDEQNLRELYITQLLFWSERCYEELQAIDDELPLLKMMAERASHPHRHPAPPPATKTVPTLKPFIITRDAQQKQVFGLGYPGIPAMSVDEWYHQKFGHNPQNAPQSSAPAGAEAQESEEEVDDDEARAKAMRWDEYKDDHRRGWGNMHNKG | soluble
GPGSMNKSAKDTANPLFPATAIATIDVRAIVANYRTLAQHVAPTECSAVVKANAYGLGAHKIAPALYQAGCRTFFVAQIEEALQLKAVLPENVMIALLNGFPHKAEEFVAQSGIIPLLNSWSTIEDWQTLCQKKNKKFPAIIQVDTNMSRLGLDKKELQKLIKNPTIFEKAEIKYILSHLANGEDASHSSNNKQLAAFKRVLAQLPTCKVSFANSGGIFLGSDFYFDLVRPGIALYGVDPHGKHPTPLKAVVKVEAQVLQSRFIDAGIPVGYRESFMTRRPSTLATISIGYADGWPRILSNKGTVYFNGHKLPIVGHISMDSIIVDATDLDKKPQRGDWVELIGPHQPLEKVSTDTNTIPHEILTSLGKRYKRIYI | soluble
SLSKRLLSLASLALLFGCAQQPNDRAQQYQQQTFPHILNRADVVESNKPRDYTEFSKQSELVVQGSASMAKIYRPLYEQLNEWVLQSGDPATLAQFGIQAAQLGGGDKQGNVLFTGYFSPVIELRHQPDSVFKYPVYGLPKCNKNCPTRAEIYQGALDGQGLELGYAENLIDPFIMEVQGSGFVHFGDDDTLEYFAYAGKNNKAYVSIGKVLIERGLVEREKMSLKAIKDWVLANDEATVRELLEENPSFVFFKPSAAAPVKGSAGIPLLPMASVAGDRSILPMGTPILAEVPLLNADGTWSGAHQLRLLIVLDTGGAVKQNHLDLYHGMGPRAGLEAGHYKHFGRVWKLGLENSPTQAPWALPPEKQQ | not soluble
MSELIRVPDIGNGEGEVIELLVKPGDKVEADQSLLTLESDKASMEIPSPKAGVVKSIKAKVGDTLKEGDEILELEVEGGEQPAEAKAEAAPAQPEAPKAEAPAPAPSESKPAAPAAASVQDIKVPDIGSAGKANVIEVMVKAGDTVEADQSLITLESDKASMEIPSPASGVVESVSIKVGDEVGTGDLILKLKVEGAA | not soluble
MPTPFDVTILGGGLAGRLCAWQLAQTGVPPARIAVVERGARDGSGSAAYVAAAMLAPLAEAAVADRFVVELGLASLTLWRDWLPMLRTPVFFQQAGTLVVWHPADRGEASLFANHVRAATPPERIAADLRAVDAEGIGTLEPALAQRFSQGLYLAGEGQLDNRAVLDALATELEALGVQLRWNTAVADPHPQALAAAGLGARLVLDCRGLGAQPQWPQLRGLRGEVARIHAPDVTLTRPVRMLHPRYPIYIAPKPGHVYVIGATEIESDDMSPVSVRSTLELLSAAYAVHPAFGEARVLELCTQCRPTLPDHRPAIRWDGAGTLSVNGLYRHGYMIAPAVAQAAVAAAHALLDGRAIDAPASAWPGLFAAPASPEPVLPLEHHHHHH | soluble
AHHHHHHGSIRRVKREIRVIGFDDGTFPHKKRGEKVILVGIVMKGGSDVLGAVSRWITIDGLDVTEAIIDSILSSRFRGDLRVILLKGITYAGFNVVDVNRVFRETGLPLIVVVRKRPDFEAIENALRKHFEDWEKRMELIKAGGKIYELIPGKVYYQAIGIDAETAAKIIRATSRNSLIPEALRIAHIVASAVMRGESSKE | not soluble
SNMEVDVFPDLNAPTVVVMTEATGMAPEEVERLVTFPVETAVNGATDVRRVRSSSTTGFSIVWVEFDWGTDIYRARQIVSEKLAVVGADLPDNVGKPTLGPQSSILGEVMIIGLTADSTSLQDLRTLADWTIRPRLLSIGGVAQVTVLGGDIKEYQILLNPERMKHYGITLAEVRAAVDQMNRNASGGVLYEYGNEYIICGLLSTNDAAALGKTLVKSLDDIPIMLESVAEVRVGNKAPKLGLASERGQSAVLVTITKQPATSTLELTERLDRSLADLQKALPSDVKVSTDIFRQERFIENSISNVRK | not soluble
MSLTIDHSVTNTEQLEQQNPAIKTKLKLKKLKDQVIVITGASSGIGLVTARMAAEKGAKVVAAARNEEALKELTDELKEKGHDAIWVKADVGKEEDVNRIAETAISTFGRFDTWVNNAAVSTFGHAMDVTVEDMKRMFDTNFWGPVYGTRAAVKHYTGRGVPGALINVGSLFGDRGTVIQSTYASAKFALHGWTESIRMELEKEQAPVSVTLIHPGRIDTPYNEHAHSYLDKQPAHYRSMIYPPEAVAEAILFAAEHPKRDMYIGSQAKAIAMLGALFPRLTDRLMEKIMYHSQHAERPSNPREGHHHHHH | soluble
AKDWFVAVFANMAHNENKITKISDSLKEYNKRVQEKYAKYDSGKGDSKYSETYLQYVEGGSLTSIFGVRSLGINPADGKEIYLRPDGTITYDWNAADQVVIGNEEPKLQGTFGFNLRWKQFSLYSTFMYEFGGQRYNSTLVSKVENAHIQSSNVDRRVLTGRWQKPGDCTPYGRLQTDGVVAVTRPTSRFIQDYNVLTFNSLTLGYDFNAEWLKKARIGLLRVELSGNDLFRVATVRAERGLDYPYSRSFAASVKMSF | not soluble
MAHHHHHHMSIFGVSSYFLWTQKGQTVLPLVRGSGFVMSFQQLNTFYSYHVMSAAHVTCPVKHRKLYGDTIGLKAIGERHISTRLLIPDEATHRVQSSFELEFRQQYMPNTDVASLRLCKEEQFKKAMLPPQDSGTGTASPLQVILPDLDRIEEGDELILCGVHTEEERANPNDDGLVLNPMRLIATCKAALLSLDYGTVLLASIDGPAEEARESGSGSAASASRPVTVPPLPLSMCGGPVLRRSSGRCVGVIAARVMANAPPRDPQSTSLYQDPYLDISEHIALHAHWPLDVAFVPIGEFYDPLRRCEM | not soluble
MDLFCLGRDLQTRPQSKEALSAIILAPMEWDLSDLYSGPQDPRILQDLEAALALAQGLDPQGLLDPKGAQDLLERYEKALELAYKPLNYASLYFATRTQDPEAKALLDRVRSRFTEVRNRLVPLEVALRKLPEEAFQRLLAHPGLADLGHFLKRQRAYAPHTLSEREEELLNLKALVGRSAWSQFYTEYTGRFRFRVGERELTEMEVRALRRDPDPEVRREAHRALYGKLLAEAPTLSAVFNAVYLDYLQDLRLRGYRHPLEPVALRDEVEVREIEALLEATKAHYPLVERYYRWKAGRLGREKTPSEDLLAPLGEKPKVPFAEARALVLEAFRRFSPELAEIAREFFEKRWIDVYPRPGKRGGAFCSGGLPSTHPYILLNHTDDLDSAHTLAHELGHGVHFYLARKQRLLNFGASTPLAETASVFAEILLDDLLLERLSGEEKTLLLAERVEDAINTLFRQVMYTFFEQRSLEARKEAALSPEAFHALWDEEQRRLYGEAVAWTELDRAAWAGIPHFVHYRFYTYSYALGYLVVLALYGKYREEGEAFVPKYLRILEAGESASPKEILAEAGVELGSEAFFRYGFGVLESWLKALP | soluble
MGSDKIHHHHHHENLYFQGMIIRYATPDDIEDMVSIFIDAYNFPGPRESVKSSFEISLEVQPDGCLLAFLKDEPVGMGCIFFYNKQAWIGLMGVKKAYQRRGIGTEVFRRLLEIGRRKVDTIRLDASSQGYGLYKKFKFVDEYRTVRYELMERPIKRVEGVVEVNKIPNWVKEIDKKAFGDDRIRVLEAYMRRGARLLCAENEGFGLVYRGKIGPLVADSPRVAEKILLKAFQLGAREIIIPEVNKDALELIKIFKPSQVTSCMRMRLGSKIEEKVDIYYGILAYAKG | soluble
MGSDKIHHHHHHMTGRRIAIAIDSLAGGGAEKVMLTLASTLVELGHEPHLLVLQQDCHHEIPPGLQVHFCFGGDERNIDGFWRTRGSVQKLQQWITGLEERFGKFELFLSNLDKTNLLMTRTGVAPLYCVVHNSIEEELQRQRKLGPFAYLSMLRAKKSLNGQHLITVSKGIANEIAEVGRVQPASVQTIYNPFELEKIQHQASQTADALPKGDYIIHVGRFARQKRHDVLFAALKQMRNPLPLVLLCNNKKKAIKSARKFGVEDRVIIPGFQTNPYPWIKGARLLALSSDYEGLPTVLIESLAVGTPVVSTDCRHGPKEILTGALRRFLVPRRDPAALAMAMDEALTHYPDCDDAEILTQVGAAAVAGKYLKLLTA | not soluble
MGSDKIHHHHHHMTESSDYESVQVFIGVDVGKDTHHAVAINRSGKRLFDKALPNDENKLRSLISDLKQHGQILLVVDQPATIGALPVAVARSEGVLVGYLPGLAMRRIADLHAGEAKTDARDAAIIAEAARTLPHALRTLKLADEQIAELSMLCGFDDDLAAQTTQASNRILGLLTQIHPAPERVLGPRLEHPAVLDLLQRYPSPEKLASLGEKKLAAQLCKLAPRLGKRLAADIAQALAEQTVVVPGTNAAAVVLPRLALQLITLRKQRDEVALEVEQRVLAHPLYPVLTSMPGVGVRTAARLLTEVACRAFASAAHLAAYAGLAPVTRRSGSSIRGEHPSRRGNKALKRALFLSAFTALRDPLSRAYYTRKMSQGKRHNQVLIALARRRCDVLFAMMRDGTFYTPQGS | not soluble
